Measured values as given in the DeepSol protein solubility set.

Experiment: soluble on expression in E. coli; label from the status in PepcDB or PDB records

Sequence	soluble on expression in E. coli
MHHHHHHSSGVDLGTENLYFQSMSTDSVISSESGNTYYRVVLIGEQGVGKSTLANIFAGVHDSMDSDCEVLGEDTYERTLMVDGESATIILLDMWENKGENEWLHDHCMQVGDAYLIVYSITDRASFEKASELRIQLRRARQTEDIPIILVGNKSDLVRCREVSVSEGRACAVVFDCKFIETSAAVQHNVKELFEGIVRQVRLRRDSKEKN	soluble
GPGSMAGKGNAKVVVTHPKSRKVRQLQRQSRREKRISEQKGKRNAKAALEAARFFWFREQCLALGRTKLAFSREEAQVLTEQYLKRNDEEIVALKSMRNPTAGRIKILEAMKTSEADDFNSSKGIVIPDITNSDNLEILTSIWDGRADTAGVVRRVGLTRTGVSPAAPAVTELEGKLLTIDEVRERSIDFTSRKARKFQTMKRVQSVKKTPTAEDVWLRSKKRGVDLQAKRLRQGREAVLKTRRAN	soluble
MGSDKIHHHHHHMRVDHSTQPVAVLQEPSIVLVIQGVKRAYIGKDIFKFQQGQCLFISIAIPFDCDTLVEREPMLAIAIKFEPQMMAELATKMDKEHRPLIEDFDNKEIKLSCGLNIIEMNSVISDVALRLLNLLRSKQDTAILGEQVKRELIYRVLQAGGSDFIQNLSAIMSRSGVIYTICEIIQRDYYRNLTVQELAKQAGMSVSLFHQAFKKVTNYSPLQYIKITRLHKARDLILNNQMGVAEAAYEVGYVSASQFSREFKRLFGVPPKLSTN	not soluble
MSLTDAPDLILHRGLFTTLDRSNPIASAVAISGGRFSAVGHDREVLPLAGPSTKVIDLKGRRVLPGLIDNHLHIIRGGLNFNMELRWDGVRSLADAMNMLKRQVAITPPPQWVRVVGGFTEHQFAEKRLPTIEELNAVAPDTPVFLLHLYDRAILNGAALRAVGYTRDTPEPPGGEITRDANGNPTGLLLAKPNANILYATLAKGPKLPFDYQVNSTRHFMRELNRLGVTGAIDAGGGFQNYPDDYAVIQKLDEEGLLTIRLAYNLFTQKPKGEKDDFLNWTKTSKYKQGNDYFRHNGAGEMLVFSAADFEDFRVPRPDMPPEMEGELEEVVRILVQNKWPWRLHATYDETISRALDVFEKVNQDTPLDGLHWFFDHAETISDRSIDRIAALGGGIAVQHRMAYQGEYFVERYGFGAAEATPPVRRILDSGVKVSAGTDATRVASYNPWVSLSWLVTGRTVGGLRITPQRNCLDRETALRMWTENVTWFSNEEGNKGRVAVGQLADVVVPDRDYFSCSEAEIADTTSLLTMVGGKVVYGAGEFAGLDDSEGHHHHHH	not soluble
MGSDKIHHHHHHMGIDIKHEESSLVGLLTYIGRLKDEQFDYVIDLHNVIRSKIIRFYLRFFGVKGFSLKKPRLQLRQLTAKPPKKPTRLPSVIERYAQVFHKAGLEIHPPYPILLNDSGHISTELPIVEIGSGHHLIGIAPFAGHEAKTYPPEKMHEVVRTLAERDDVQIFLFGGKGKEKNILEQWADESPRIVSVAGLLSLPEELSLIHALRCMVSMDSANMHFASLVGTRVISIWCATHPAAGFLGYGQRIEDCIGADLDCRPCSVFGNKPCFRKDYACRTQIEPQLIINKIVSTLTDLNSDETEN	not soluble
MIYQKQRNTAETQLNISISDDQSPSHINTGVGFLNHMLTLFTFHSGLSLNIEAQGDIDVDDHHVTEDIGIVIGQLLLEMIKDKKHFVRYGTMYIPMDETLARVVVDISGRPYLSFNASLSKEKVGTFDTELVEEFFRAVVINARLTTHIDLIRGGNTHHEIEAIFKAFSRALGIALTATDDQRVPSSKGVIE	soluble
MSLSGKKVIYFIPIVDTGAYWSPMKKAAEDEAKALGYDLVVKTSPPNETQKNEKHIGFLDEAIKNKAAGIAIAPMDPDMFDKKVKEANDKGIPVVTFDADVKTKENRTSYIGTDNKLAGEQLGENGAKALKEKGITKGKIAMAAVNLTQTTMTYRQDGIKSGFEKVMGADAKNFEWLEPIQDNDQSAESKRQLEGQITSNSDMVAVFSLGSEGPDTGVMEAIKSQGKSGSIYHFGFDYTPTWENGVSSNLISGIVDQDSYAIGKTIIDTLDKKIKGEKVDDVYPVPVKWVTPDKIVEYGKEKQKQFTTELKGIITITTDPNSSSVDKLAAALEHHHHHH	soluble
GGVQLNFGGNFTYNKNEILSLGNVDVQKDARTIRMVGKEFNAFYGYKSDGIFQSKEEIANAPKYTMISNDRLIPGDIKLVDINGDGEINPDDKVILSSENPKYTFAFNLGARWKMFDINLFFQGAAGVSRYFTDEFYGEFNGDSGHPSNHWLGRWTPENPTNKWPRASKFRTYNLPETTCSDFWLVNTNYLRLKDIQVGFNVPKEWLQAVRLGSARIYYSGTNLLTFSKTPQGIDPEAPAGWGAYYPHVKTHSIGINITL	not soluble
MSLTPPRSLLHALKPFLEAGADKEALVFGAHRISFGDMAGHAAALAEVLRSKGVQKGDRVAALFPPRPEAILSLLACWLIGATWMGINPRYQRREQAQILADAGVKVLMSMTRIGKRDLEDDLASHETDLGFSVLRFAPAFAPAALPEKLPYDEVLRRWREATETLEPDSPSVVIYTSGSTGKPKGALITHAGLAFRSHTLHIDRFNLPAPTQLIDLPVNHIGALASGIGVAMASGGKMILSEQFDPGVTLRTAFAEKLAIISGVPAMLARLVEHPDFATSDLSSVKAISWGAGPINEAVLRKLLNATDALFSQQYGMTESNGPIVFTPPTRDVEVLLNTTGKPDPRLELRIADESGQPLPDGEEGEVQIRHPHPFAGYLGNAEASAAAFTADGFLHTGDLAMVREDGYLVFCGRSKEMYKSGGFNVYPREIEIALEAHPAIRAAAVLGVDDEQWGQVGHAFVELASPLTSDDITGWCKARLADFKVPKRVSVIDAMPRTPVDKVDRMQLAELAARGEGHHHHHH	soluble
SDDTLFQLKFTAKQLEKLAKKAEKDSKAEQAKVKKALQQKNVECARVYAENAIRKKNEGVNWLRMASRVDAVASKVQTAVTMKGVTKNMAQVTKALDKALSAMDLQKVSAVMDRFEQQVQNLDVHTSVMEDSVSSATTLTTPQEQVDSLIVQIAEENGLEVLDQLSQLPEGASAVGESSVRSQEDQLSRRLAALRN	soluble
MRKRARIIYNPTSGKELFKRELPDALIKLEKAGYETSAYATEKIGDATLEAERAMHENYDVLIAAGGDGTLNEVVNGIAEKPNRPKLGVIPMGTVNDFGRALHIPNDIMGALDVIIEGHSTKVDIGKMNNRYFINLAAGGQLTQVSYETPSKLKSIVGPFAYYIKGFEMLPQMKAVDLRIEYDGNVFQGEALLFFLGLTNSMAGFEKLVPDAKLDDGYFTLIIVEKSNLAELGHIMTLASRGEHTKHPKVIYEKAKAINISSFTDLQLNVDGEYGGKLPANFLNLERHIDVFAPNDIVNEELINNDHVDDNLIEEMAGDPLEHHHHHH	not soluble
MAKDIRVLLYYLYTPIENAEQFAADHLAFCKSIGLKGRILVADEGINGTVSGDYETTQKYMDYVHSLPGMEELWFKIDEENEQAFKKMFVRYKKEIVHLGLEDNDFDNDINPLETTGAYLSPKEFKEALLDKDTVVLDTRNDYEYDLGHFRGAIRPDIRNFRELPQWVRDNKEKFMDKRVVVYCTGGVRCEKFSGWMVREGYKDVGQLHGGIATYGKDPEVQGELWDGKMYVFDERIAVDVNHVNPTIVGKDWFDGTPCERYVNCGNPFCNRRILTSEENEDKYLRGCSHECRVHPRNRYVSKNELTQAEVIERLAAIGESLDQAATVLEHHHHHH	soluble
MADDEDDIVWIREDTAQSSVPTSPTTPATIIEAAPVLSDAFDKPILKSVETISVSNGPPEVTISAPPPTPPAAPLAPQITPMVLSTVPDAAPAQDIPALILAALAPEPVPEPEPEVEAKQNVIVEKENEIKDQQQNDQLSAKLDPKTPNSVDDNSMSFDISECERKFNTAIREANDILEDFDKKSKQVAENTKFVAKELAELAADAPRVFQKTIEDHSQVPEISELPSGGLPKNVESVLIGEGILEEITGTLVLPTGQVLVTDERVGILLFNLEGDVLAKINPADFRKLWSPVYHKEHILVLADAKNAENHWSRHVIKFTCQLEYVAKIECPSWLAECTILRERLSIAHNDHLYLCVCGEIFSGIYELTPIGQWTELEYKLSEAYIDMLAFATIGPITQLLVVEGRRNYVLLVSVRESRIVDRKRMAICERPGALAKDEAGRLFVSNRFSASIQLVDTMRWVSEKNVAITEAFVRHFTACWGLLAIPLKNAVRLQRYSFRSLR	not soluble
MLRLWEELNRVENLFLELLDDPKKKDVLLYLICYCQLVRRDGEYEVELPKLINCAEKPYKYISGNWQDVLLELGVLYLKDKKGKVYTGKEILLVKNPEGFKVGILPDYREDFYKFYTKLLKYWSVLNSRRTLGSNTTPDYYTPLLVHTFNEKLFKEAQYFSEILAMRFPKEKNLFLSVKLVSEFYREYAKTGRVKADNLNDAINFLSDTPDVFYSVNVKKFKKDIKKFLENLNKGEFYYITIEFASENRGKKRSILSKLWNFIKSLGGKRWNSRSSGMDYYSFIEHLLKKHRRQMMRSLESSTPRLQGT	not soluble
MSDLQKLQRFSTCDISDGLLNVYNIPTGGYFPNLTAISPPQNSSIVGTAYTVLFAPIDDPRPAVNYIDSVPPNSILVLALEPHLQSQFHPFIKITQAMYGGLMSTRAQYLKSNGTVVFGRIRDVDEHRTLNHPVFAYGVGSCAPKAVVKAVGTNVQLKILTSDGVTQTICPGDYIAGDNNGIVRIPVQETDISKLVTYIEKSIEVDLLVSEDIKNGIPAKQAQNDRRSVLKKYIHHHHHH	soluble
MNNSNLAAARNLIQVVTGEWKSRCVYVATRLGLADLIESGIDSDETLAAAVGSDAERIHRLMRLLVAFEIFQGDTRDGYANTPTSHLLRDVEGSFRDMVLFYGEEFHAAWTPACEALLSGTPGFELAFGEDFYSYLKRCPDAGRRFLLAMKASNLAFHEIPRLLDFRGRSFVDVGGGSGELTKAILQAEPSARGVMLDREGSLGVARDNLSSLLAGERVSLVGGDMLQEVPSNGDIYLLSRIIGDLDEAASLRLLGNCREAMAGDGRVVVIERTISASEPSPMSVLWDVHLFMACAGRHRTTEEVVDLLGRGGFAVERIVDLPMETRMIVAARA	soluble
MSAAEEVDGLGVVRPHYGSVLDNERLTAEEMDERRRQNVAYEYLCHLEEAKRWMEACLGEDLPPTTELEEGLRNGVYLAKLGNFFSPKVVSLKKIYDREQTRYKATGLHFRHTDNVIQWLNAMDEIGLPKIFYPETTDIYDRKNMPRCIYCIHALSLYLFKLGLAPQIQDLYGKVDFTEEEINNMKIELEKYGIQMPAFSKIGGILANELSVDEAALHAAVIAINEAIDRRVAADTFTALKNPNAMLVNLEEGLAPTYQDVLYQAKQDKMTNAKNRTENSDRERDVYEELLTQAEIQGNVNKVNTSSALADISLALEQGCAVTLLKALQSLALGLRGLQTQNSDWYMKQLQSDLQQKRQSGQTDPLQKEEVQAGVDAANSAAQQYQRRKRPLAPGHRSVQGRAVVALCH	soluble
MRGVTPINPQKKIEADSNPVKESDYYEGERLTHLLDLIQRGIETSKLSNVNSLPEKIWLKKQIAIGINEVTRVLERMNPNNTSDQQQNPKQLQVVILVADCKPRMLTKHIPNLAASRNVPVLYVRDNKRASLRLGELVKLKTALAIGIKARGNDLNLLLKQILPRDS	soluble
LEYSDSIDLLNMDLYDLMKLADRLTHYDAGETVSYAISYNINYTNYCTASCPICAFYVPYKNKRFGKGYELTKEQVRKEALIAKQKGATEIHIVGGFDPDLSIEYYEDIFRTIRGIMPNVAIKAFTIPEIDFIARTTGNSIKETVLRFMDAGMNAHTGGGAEIFDQEIRKYITTPEKVSGEKWLEDAKIIHSLGLKGNSTMTYGHIEGWEHIIDHMIRLRDNQIEVPGFLSFIPLKFSPENTALLRSGRVHGPAPVDKDLKVIALARIIMGRAIRNISVYWVAIGKLTAQIAINGGGNDLVGTAYSEKVFGATDRKTSTTTEELNNMIRQAGKIPGVR	not soluble
